Assay results taken from patent US20240141062A1 (published 2024).

Columns and labels:
[1] = target: T1, human CD38 on tumor cells (human, UniProt P28907 1-300); experiment: flow cytometry on Raji-CD47KO cells
T1 construct: whole, on cells; Endogenous CD38 of the cell lines; also called CD38 on Raji-CD47KO cells

human CD47 on cells = target: T2, human CD47 on cells (human, UniProt Q08722 19-323); experiment: flow cytometry on human red blood cells
T2 construct: whole, on cells; Endogenous CD47 of the cells; also called CD47 on Daudi cells; CD47 on RBCs

- binding result [1]: binds
- binding result (human CD47 on cells): binds
B1: BEAT CD38/CD47-60 (bispecific antibody, human IgG1, kappa)
heavy 1: EVQLVESGGGLIQPGGSLRLSCAASGFTLSRNTMHWVRQAPGKGLEWVSVIYQSGVTRYADSVKSRFTISRDNSKNTLYLQMNSLRAEDTAVYYCARGRYGVAGGPGYAFDVWGQGTLVTVSSASTKGPSVFPLAPSSKSTSGGTAALGCLVKDYFPEPVTVSWNSGALTSGVHTFPAVLQSSGLYSLSSVVTVPSSSLGTQTYICNVNHKPSNTKVDKKVEPKSCDKTHTCPPCPAPELLGGPDVFLFPPKPKDTLMISRTPEVTCVVVDVSHEDPEVKFNWYVDGVEVHNAKTKPREEQYNSTYRVVSVLTVLHQDWLNGKEYKCKVNNKALPAPEEKTISKAKGQPREPAVYTLPPSREEMTKNQVKLVCLVTGFYPSDIAVEWESSGQPENNYYTTPPMLDSDGSFSLVSWLNVDKSRWQQGNIFSCSVMHEALHNRFTQKSLSLSPG
heavy 2: not shown
light: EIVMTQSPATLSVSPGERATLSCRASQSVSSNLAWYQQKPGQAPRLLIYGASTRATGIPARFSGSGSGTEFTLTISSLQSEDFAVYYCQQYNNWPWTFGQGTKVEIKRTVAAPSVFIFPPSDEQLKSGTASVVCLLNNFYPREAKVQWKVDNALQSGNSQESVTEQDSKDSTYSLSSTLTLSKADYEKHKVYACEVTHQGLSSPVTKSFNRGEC
notes: 2+1 biparatopic BEAT: anti-CD47-H2 arm on BEAT (A); BEAT (B) carries Fc distal anti-CD38-B6-D9 and Fc proximal anti-CD38-E2-RecA Fabs; BEAT (A): S239D + I332E + S324N, BEAT (B): S324N; also called BEAT CD38/47-60; BEAT 38/47-60
